This note sets out measurements from patent publication US20260098059A1 (ENDOMET BIOSCIENCES, published 2026).

“And” between values parts separate entries of the source, which are not always exact repeats. Equal values may be shown once. [ ]: non-standard residue; d: D form. The star is where a group is joined. NMeW = CN[C@@H](Cc1c[nH]c2ccccc12)C(=O)O; Stearoyl = CCCCCCCCCCCCCCCCCC(=O)*; Palmitoyl = CCCCCCCCCCCCCCCC(=O)*; αMeV = CC(C)[C@](C)(N)C(=O)O; αMeS = C[C@](N)(CO)C(=O)O; GABA = NCCCC(=O)O; βAla = NCCC(=O)O Some results are limits rather than exact numbers.

The labels stand for the following.
T1: β-catenin (UniProt P35222 134-665, limits assumed, biotinylated in the SPR and plate assays)
T1 sequence (looked up): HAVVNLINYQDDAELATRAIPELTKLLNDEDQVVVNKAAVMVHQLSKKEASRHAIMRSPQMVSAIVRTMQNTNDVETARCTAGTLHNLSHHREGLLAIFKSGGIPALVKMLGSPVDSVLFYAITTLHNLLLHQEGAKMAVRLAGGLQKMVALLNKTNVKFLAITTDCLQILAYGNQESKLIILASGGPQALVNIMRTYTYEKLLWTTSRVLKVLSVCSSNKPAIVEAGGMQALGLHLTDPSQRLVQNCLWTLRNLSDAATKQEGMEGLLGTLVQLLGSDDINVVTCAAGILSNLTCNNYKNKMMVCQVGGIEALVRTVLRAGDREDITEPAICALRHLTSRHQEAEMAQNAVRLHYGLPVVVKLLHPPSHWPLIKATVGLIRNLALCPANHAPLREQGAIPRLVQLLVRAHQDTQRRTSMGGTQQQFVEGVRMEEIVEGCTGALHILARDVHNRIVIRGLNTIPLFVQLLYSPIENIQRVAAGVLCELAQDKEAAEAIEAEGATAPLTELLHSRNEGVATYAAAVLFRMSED

B1: SEQ ID NO: 392 (peptide)
peptide: {Stearoyl-GABA}-W[NMeW]E[αMeS]ILDEH[αMeV]QRVWG-OH
B2: SEQ ID NO: 399 (peptide)
peptide: Palmitoyl-[βAla]W[NMeW]E[αMeS]ILDEH[αMeV]QRVW-OH
SMILES: CCCCCCCCCCCCCCCC(=O)NCCC(=O)N[C@@H](Cc1c[nH]c2ccccc12)C(=O)N(C)[C@@H](Cc1c[nH]c2ccccc12)C(=O)N[C@@H](CCC(=O)O)C(=O)N[C@@](C)(CO)C(=O)N[C@H](C(=O)N[C@@H](CC(C)C)C(=O)N[C@@H](CC(=O)O)C(=O)N[C@@H](CCC(=O)O)C(=O)N[C@@H](Cc1c[nH]cn1)C(=O)N[C@](C)(C(=O)N[C@@H](CCC(N)=O)C(=O)N[C@@H](CCCNC(=N)N)C(=O)N[C@H](C(=O)N[C@@H](Cc1c[nH]c2ccccc12)C(=O)O)C(C)C)C(C)C)[C@@H](C)CC
B3: SEQ ID NO: 396 (peptide)
peptide: Palmitoyl-W[NMeW]E[αMeS]ILDEH[αMeV]QRVWG-OH
B4: SEQ ID NO: 390 (peptide)
peptide: Stearoyl-W[NMeW]E[αMeS]ILDEH[αMeV]QRVWG-OH
B5: SEQ ID NO: 395 (peptide)
peptide: {Stearoyl-GABA}-W[NMeW]E[αMeS]ILDEH[αMeV]QRVW-OH
B6: SEQ ID NO: 400 (peptide)
peptide: {Palmitoyl-GABA}-W[NMeW]E[αMeS]ILDEH[αMeV]QRVW-OH
B7: SEQ ID NO: 412 (peptide)
peptide: AEEDPQTILDDHLSRVLK
HELM: PEPTIDE1{[ac].[bAla].E.E.D.P.Q.T.I.L.D.D.H.L.S.R.V.L.K.[am]}$$$$V2.0
SMILES: CC[C@H](C)[C@H](NC(=O)[C@@H](NC(=O)[C@H](CCC(N)=O)NC(=O)[C@@H]1CCCN1C(=O)[C@H](CC(=O)O)NC(=O)[C@H](CCC(=O)O)NC(=O)[C@H](CCC(=O)O)NC(=O)CCNC(C)=O)[C@@H](C)O)C(=O)N[C@@H](CC(C)C)C(=O)N[C@@H](CC(=O)O)C(=O)N[C@@H](CC(=O)O)C(=O)N[C@@H](Cc1c[nH]cn1)C(=O)N[C@@H](CC(C)C)C(=O)N[C@@H](CO)C(=O)N[C@@H](CCCNC(=N)N)C(=O)N[C@H](C(=O)N[C@@H](CC(C)C)C(=O)N[C@@H](CCCCN)C(N)=O)C(C)C
B8: SEQ ID NO: 391 (peptide)
peptide: Stearoyl-[βAla]W[NMeW]E[αMeS]ILDEH[αMeV]QRVWG-OH
SMILES: CCCCCCCCCCCCCCCCCC(=O)NCCC(=O)N[C@@H](Cc1c[nH]c2ccccc12)C(=O)N(C)[C@@H](Cc1c[nH]c2ccccc12)C(=O)N[C@@H](CCC(=O)O)C(=O)N[C@@](C)(CO)C(=O)N[C@H](C(=O)N[C@@H](CC(C)C)C(=O)N[C@@H](CC(=O)O)C(=O)N[C@@H](CCC(=O)O)C(=O)N[C@@H](Cc1c[nH]cn1)C(=O)N[C@](C)(C(=O)N[C@@H](CCC(N)=O)C(=O)N[C@@H](CCCNC(=N)N)C(=O)N[C@H](C(=O)N[C@@H](Cc1c[nH]c2ccccc12)C(=O)NCC(=O)O)C(C)C)C(C)C)[C@@H](C)CC
B9: SEQ ID NO: 57 (peptide)
peptide: H-MSRMWFLISFWEG-OH
B10: SEQ ID NO: 58 (peptide)
peptide: H-MSRMWFLISFWRG-OH
B11: SEQ ID NO: 394 (peptide)
peptide: Stearoyl-[βAla]W[NMeW]E[αMeS]ILDEH[αMeV]QRVW-OH
SMILES: CCCCCCCCCCCCCCCCCC(=O)NCCC(=O)N[C@@H](Cc1c[nH]c2ccccc12)C(=O)N(C)[C@@H](Cc1c[nH]c2ccccc12)C(=O)N[C@@H](CCC(=O)O)C(=O)N[C@@](C)(CO)C(=O)N[C@H](C(=O)N[C@@H](CC(C)C)C(=O)N[C@@H](CC(=O)O)C(=O)N[C@@H](CCC(=O)O)C(=O)N[C@@H](Cc1c[nH]cn1)C(=O)N[C@](C)(C(=O)N[C@@H](CCC(N)=O)C(=O)N[C@@H](CCCNC(=N)N)C(=O)N[C@H](C(=O)N[C@@H](Cc1c[nH]c2ccccc12)C(=O)O)C(C)C)C(C)C)[C@@H](C)CC
B12: SEQ ID NO: 398 (peptide)
peptide: Palmitoyl-GW[NMeW]E[αMeS]ILDEH[αMeV]QRVW-OH
B13: SEQ ID NO: 397 (peptide)
peptide: Palmitoyl-W[NMeW]E[αMeS]ILDEH[αMeV]QRVW-OH
B14: SEQ ID NO: 41 (peptide)
peptide: H-MSRMWFLISFWG-OH
B15: SEQ ID NO: 52 (peptide)
peptide: H-MSRMLFLISFWG-OH
B16: SEQ ID NO: 60 (peptide)
peptide: H-MSRMWLLISFWG-OH
B17: SEQ ID NO: 50 (peptide)
peptide: MSRMAFLISFWG
HELM: PEPTIDE1{M.S.R.M.[meA].F.L.I.S.F.W.G}$$$$V2.0
SMILES: CC[C@H](C)[C@H](NC(=O)[C@H](CC(C)C)NC(=O)[C@H](Cc1ccccc1)NC(=O)[C@H](C)N(C)C(=O)[C@H](CCSC)NC(=O)[C@H](CCCNC(=N)N)NC(=O)[C@H](CO)NC(=O)[C@@H](N)CCSC)C(=O)N[C@@H](CO)C(=O)N[C@@H](Cc1ccccc1)C(=O)N[C@@H](Cc1c[nH]c2ccccc12)C(=O)NCC(=O)O
B18: SEQ ID NO: 62 (peptide)
peptide: H-MSRMWFLTSFWG-OH
B19: SEQ ID NO: 48 (peptide)
peptide: H-MSRTWFLISFWG-OH
B20: SEQ ID NO: 61 (peptide)
peptide: H-MNRMWFLISFWG-OH
B21: SEQ ID NO: 59 (peptide)
peptide: H-MSRKWFLISFWG-OH
B22: SEQ ID NO: 55 (peptide)
peptide: H-MSRIWFLISFWG-OH
B23: SEQ ID NO: 56 (peptide)
peptide: H-MSRMWFLVSFWG-OH
B24: SEQ ID NO: 54 (peptide)
peptide: H-MSRMWFLISSWG-OH

This assay concerns the target T1, β-catenin. Nature of the assay: cell-based or functional assay.
Consider B1, for which the “Wnt Reporter EC50” value is no more than 7.5 µM.
As for B2, the “Wnt Reporter EC50” value is > 7.5 µM and ≤ 15 µM.
As for B3, the “Proliferation IC50, Endo cells” value came to 15 µM; the “Proliferation IC50, Wnt dependent cells” value is 2.9 µM; the “Wnt Reporter EC50” value was > 7.5 µM and ≤ 15 µM.
For B4, the “Proliferation IC50, Wnt dependent cells” value was found to be 4.7 µM; the “Wnt Reporter EC50” value is > 7.5 µM and ≤ 15 µM.
Take B5: the “Proliferation IC50, Wnt dependent cells” value is 6.8 µM; the “Wnt Reporter EC50” value is > 7.5 µM and ≤ 15 µM.
Consider B6, for which the “Wnt Reporter EC50” value is > 7.5 µM and ≤ 15 µM.
Take B7: the “Wnt Reporter EC50” value was greater than 30 µM.
As for B8, the “Proliferation IC50, Wnt dependent cells” value is 4.8 µM and the “Wnt Reporter EC50” value was no more than 7.5 µM.
As for B9, the “Wnt Reporter EC50” value was no more than 7.5 µM.
The same measure, in the same setting: under B10 stands > 22.5 µM and ≤ 30 µM; under B11, > 7.5 µM and ≤ 15 µM; under B12, > 7.5 µM and ≤ 15 µM.
Same read-out and setting: under B13 stands > 7.5 µM and ≤ 15 µM; under B14, no more than 7.5 µM.
Same read-out and setting: under B15 stands > 15 µM and ≤ 22.5 µM.
Regarding B16, the “Wnt Reporter EC50” value is > 7.5 µM and ≤ 15 µM.
In the case of B17, the “Wnt Reporter EC50” value is greater than 30 µM.
For the molecule B18, the “Wnt Reporter EC50” value is greater than 30 µM.
Consider B19, for which the “Wnt Reporter EC50” value was > 7.5 µM and ≤ 15 µM.
Consider B20, for which the “Wnt Reporter EC50” value is > 7.5 µM and ≤ 15 µM.
For the molecule B21, the “Wnt Reporter EC50” value was greater than 30 µM.
Consider B22, for which the “Wnt Reporter EC50” value is no more than 7.5 µM.
Still for that read-out and setting: under B23 stands > 7.5 µM and ≤ 15 µM; under B24, > 15 µM and ≤ 22.5 µM.
